Laboratory results reported in US20220206001A1 (TWIST BIOSCIENCE, published 2022).

B1: Ab-89 (antibody, V domains shown)
VH: EVQLVESGGGLVQPGGSLRLSCAASGIPSTLRAMGWFRQAPGKEREFVALINRSGGSQFYADSVKGRFTISADNSKNTAYLQMNSLKPEDTAVYYCAIGRGSWGQGTLVTVSS
B2: Ab-7 (antibody, V domains shown)
VH: EVQLLESGGGLVQPGGSLRLSCAASGFTFSDFAMAWVRQAPGKGLEWVSAISGSGDITYYADSVKGRFTISRDNSKNTLYLQMNSLRAEDTAVYYCAREADGLHSPWHFDLWGQGTLVTVSS
VL: DIQMTQSPSSLSASVGDRVTITCRASQSIHTYLNWYQQKPGKAPKLLIYAASALASGVPSRFSGSGSGTDFTLTISSLQPEDFATYYCQQSYSAPPYTFGQGTKVEIK

Experiments:
[1] = molecular target: SARS-CoV-2 nucleocapsid protein (SARS-CoV-2, UniProt P0DTC9 1-419); assay: lateral flow screen with nucleocapsid protein, capture antibody
SARS-CoV S1 monomer = molecular target: T1, SARS-CoV S1 monomer (SARS-CoV, UniProt P59594 14-667); assay: SPR (Carterra LSA)
T1 construct: domain: S1

Row | Binder | binding result [1] | binding result (SARS-CoV S1 monomer)
1 | B1 | binds | –
2 | B2 | – | binds
